Reference: the Human Domainome abundance scans (Beltran et al. 2025)
± gives the uncertainty stated by the source.

B1: Tumor protein 63, residues 545 to 610; numbered along this chain, Q9H3D4 (parent)
chain: TDCSIVSFLARLGCSSCLDYFTTQGLTTIYQIEHYSMDDLASLKIPEQFRHAIWKGILDHRQLHEF

Variants of: B1
Assay: abundance fitness (aPCA) (normalised: wild type 0, dead -1); higher = more abundant; growth selection in yeast, the domain comes from the species named
Conditions: Homo sapiens

TDCSIVSFLARLGCSSQLDYFTTQGLTTIYQIEHYSMDDLASLKIPEQFRHAIWKGILDHRQLHEF [C17Q] and TDCSIVSFLARLGCSSILDYFTTQGLTTIYQIEHYSMDDLASLKIPEQFRHAIWKGILDHRQLHEF [C17I] are within error of each other in abundance fitness: -0.147 ± 0.035 for the first, -0.124 ± 0.032 for the second.

Going from TDCSIVSFLARLGCSSELDYFTTQGLTTIYQIEHYSMDDLASLKIPEQFRHAIWKGILDHRQLHEF [C17E] to TDCSIVSFLARLGCSSKLDYFTTQGLTTIYQIEHYSMDDLASLKIPEQFRHAIWKGILDHRQLHEF [C17K], the abundance fitness falls from -0.377 ± 0.032 to -0.619 ± 0.043.

TDCSIVSFLARLGCSSGLDYFTTQGLTTIYQIEHYSMDDLASLKIPEQFRHAIWKGILDHRQLHEF [C17G] and TDCSIVSFLARLGCSSHLDYFTTQGLTTIYQIEHYSMDDLASLKIPEQFRHAIWKGILDHRQLHEF [C17H] are within error of each other in abundance fitness: -0.584 ± 0.036 for the first, -0.525 ± 0.049 for the second.

Going from TDCSIVSFLARLGCSSPLDYFTTQGLTTIYQIEHYSMDDLASLKIPEQFRHAIWKGILDHRQLHEF [C17P] to TDCSIVSFLARLGCSSLLDYFTTQGLTTIYQIEHYSMDDLASLKIPEQFRHAIWKGILDHRQLHEF [C17L], the abundance fitness rises from -0.784 ± 0.078 to -0.085 ± 0.022.

Going from TDCSIVSFLARLGCSSVLDYFTTQGLTTIYQIEHYSMDDLASLKIPEQFRHAIWKGILDHRQLHEF [C17V] to TDCSIVSFLARLGCSSNLDYFTTQGLTTIYQIEHYSMDDLASLKIPEQFRHAIWKGILDHRQLHEF [C17N], the abundance fitness falls from -0.077 ± 0.027 to -0.359 ± 0.043.

Going from TDCSIVSFLARLGCSSTLDYFTTQGLTTIYQIEHYSMDDLASLKIPEQFRHAIWKGILDHRQLHEF [C17T] to TDCSIVSFLARLGCSSDLDYFTTQGLTTIYQIEHYSMDDLASLKIPEQFRHAIWKGILDHRQLHEF [C17D], the abundance fitness falls from -0.087 ± 0.024 to -1.05 ± 0.14.

Compared with TDCSIVSFLARLGCSSSLDYFTTQGLTTIYQIEHYSMDDLASLKIPEQFRHAIWKGILDHRQLHEF [C17S], TDCSIVSFLARLGCSSYLDYFTTQGLTTIYQIEHYSMDDLASLKIPEQFRHAIWKGILDHRQLHEF [C17Y] is lower in abundance fitness: -0.164 ± 0.018 for the first, -0.323 ± 0.031 for the second.

Compared with TDCSIVSFLARLGCSSRLDYFTTQGLTTIYQIEHYSMDDLASLKIPEQFRHAIWKGILDHRQLHEF [C17R], TDCSIVSFLARLGCSSMLDYFTTQGLTTIYQIEHYSMDDLASLKIPEQFRHAIWKGILDHRQLHEF [C17M] is higher in abundance fitness: -0.838 ± 0.04 for the first, -0.025 ± 0.033 for the second.

Compared with TDCSIVSFLARLGCSSFLDYFTTQGLTTIYQIEHYSMDDLASLKIPEQFRHAIWKGILDHRQLHEF [C17F], TDCSIVSFLARLGSSSCLDYFTTQGLTTIYQIEHYSMDDLASLKIPEQFRHAIWKGILDHRQLHEF [C14S] is higher in abundance fitness: -0.299 ± 0.033 for the first, -0.128 ± 0.023 for the second.

First: TDCSIVSFLARLGESSCLDYFTTQGLTTIYQIEHYSMDDLASLKIPEQFRHAIWKGILDHRQLHEF [C14E]
Second: TDCSIVSFLARLGPSSCLDYFTTQGLTTIYQIEHYSMDDLASLKIPEQFRHAIWKGILDHRQLHEF [C14P]
The abundance fitness of the first is higher: -0.42 ± 0.029 for the first, -0.889 ± 0.098 for the second.

TDCSIVSFLARLGHSSCLDYFTTQGLTTIYQIEHYSMDDLASLKIPEQFRHAIWKGILDHRQLHEF [C14H] and TDCSIVSFLARLGISSCLDYFTTQGLTTIYQIEHYSMDDLASLKIPEQFRHAIWKGILDHRQLHEF [C14I] are within error of each other in abundance fitness: -0.12 ± 0.035 for the first, -0.068 ± 0.039 for the second.

Compared with TDCSIVSFLARLGLSSCLDYFTTQGLTTIYQIEHYSMDDLASLKIPEQFRHAIWKGILDHRQLHEF [C14L], TDCSIVSFLARLGVSSCLDYFTTQGLTTIYQIEHYSMDDLASLKIPEQFRHAIWKGILDHRQLHEF [C14V] is lower in abundance fitness: 0.023 ± 0.023 for the first, -0.027 ± 0.022 for the second.

TDCSIVSFLARLGYSSCLDYFTTQGLTTIYQIEHYSMDDLASLKIPEQFRHAIWKGILDHRQLHEF [C14Y] and TDCSIVSFLARLGFSSCLDYFTTQGLTTIYQIEHYSMDDLASLKIPEQFRHAIWKGILDHRQLHEF [C14F] are within error of each other in abundance fitness: -0.076 ± 0.049 for the first, -0.111 ± 0.059 for the second.

TDCSIVSFLARLGTSSCLDYFTTQGLTTIYQIEHYSMDDLASLKIPEQFRHAIWKGILDHRQLHEF [C14T] and TDCSIVSFLARLGKSSCLDYFTTQGLTTIYQIEHYSMDDLASLKIPEQFRHAIWKGILDHRQLHEF [C14K] are within error of each other in abundance fitness: -0.143 ± 0.037 for the first, -0.125 ± 0.03 for the second.

Going from TDCSIVSFLARLGNSSCLDYFTTQGLTTIYQIEHYSMDDLASLKIPEQFRHAIWKGILDHRQLHEF [C14N] to TDCSIVSFLARLGWSSCLDYFTTQGLTTIYQIEHYSMDDLASLKIPEQFRHAIWKGILDHRQLHEF [C14W], the abundance fitness falls from -0.34 ± 0.037 to -0.61 ± 0.043.

Compared with TDCSIVSFLARLGRSSCLDYFTTQGLTTIYQIEHYSMDDLASLKIPEQFRHAIWKGILDHRQLHEF [C14R], TDCSIVSFLARLGMSSCLDYFTTQGLTTIYQIEHYSMDDLASLKIPEQFRHAIWKGILDHRQLHEF [C14M] is higher in abundance fitness: -0.222 ± 0.024 for the first, -0.014 ± 0.067 for the second.

TDCSIVSFLARLGCSSCEDYFTTQGLTTIYQIEHYSMDDLASLKIPEQFRHAIWKGILDHRQLHEF [L18E] and TDCSIVSFLARLGCSSCIDYFTTQGLTTIYQIEHYSMDDLASLKIPEQFRHAIWKGILDHRQLHEF [L18I] are within error of each other in abundance fitness: -0.014 ± 0.066 for the first, -0.036 ± 0.029 for the second.

Compared with TDCSIVSFLARLGCSSCMDYFTTQGLTTIYQIEHYSMDDLASLKIPEQFRHAIWKGILDHRQLHEF [L18M], TDCSIVSFLARLGCSSCFDYFTTQGLTTIYQIEHYSMDDLASLKIPEQFRHAIWKGILDHRQLHEF [L18F] is lower in abundance fitness: -0.008 ± 0.044 for the first, -0.16 ± 0.031 for the second.

Compared with TDCSIVSFLARLGCSSCADYFTTQGLTTIYQIEHYSMDDLASLKIPEQFRHAIWKGILDHRQLHEF [L18A], TDCSIVSFLARLGCSSCHDYFTTQGLTTIYQIEHYSMDDLASLKIPEQFRHAIWKGILDHRQLHEF [L18H] is lower in abundance fitness: -0.008 ± 0.037 for the first, -0.126 ± 0.023 for the second.

TDCSIVSFLARLGCSSCKDYFTTQGLTTIYQIEHYSMDDLASLKIPEQFRHAIWKGILDHRQLHEF [L18K] and TDCSIVSFLARLGCSSCDDYFTTQGLTTIYQIEHYSMDDLASLKIPEQFRHAIWKGILDHRQLHEF [L18D] are within error of each other in abundance fitness: 0.061 ± 0.12 for the first, -0.09 ± 0.036 for the second.

In the case of TDCSIVSFLARLGCSSCCDYFTTQGLTTIYQIEHYSMDDLASLKIPEQFRHAIWKGILDHRQLHEF [L18C], the abundance fitness is reported as 0.007 ± 0.026.
